This assay concerns the target T1, EBOV sGP (Mayinga) (Zaire ebolavirus, Mayinga, GenBank …, UniProt P60170).
T1 construct: source: FreeStyle-293-F, transiently transfected, purified (Strep-Tactin, SEC)
Description: ELISA. Conditions: both partners purified. (ELISA stands for enzyme-linked immunosorbent assay.)

T1 sequence (P60170 33-314): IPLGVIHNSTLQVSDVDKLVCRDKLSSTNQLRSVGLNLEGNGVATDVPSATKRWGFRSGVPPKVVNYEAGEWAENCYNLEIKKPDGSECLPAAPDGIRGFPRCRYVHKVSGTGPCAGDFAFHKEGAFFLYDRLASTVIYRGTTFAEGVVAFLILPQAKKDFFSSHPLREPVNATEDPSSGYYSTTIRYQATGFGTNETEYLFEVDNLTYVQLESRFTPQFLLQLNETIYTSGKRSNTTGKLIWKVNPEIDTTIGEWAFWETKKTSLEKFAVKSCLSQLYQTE

B1: EBOV-548 (antibody, V domains shown)
VH: QVQVEESGGGVVQPGGSLRLSCAASGFMFSNYGMHWVRQAPGKGLEWMAFIRYDDSKKFYADSVKGRFTISRDNSKNTLYLQMNSLRAEDTALYYCAKELLQVYTSAWGEGHSYYYALDVWGLGTAVTVSS
VL: DIQMTQSPSSVSASVGDRVTITCRASQDISNWLAWYQQKPGKAPELLIYTASILQSGVSSRFSGSGSGTDFTLTISSLQPEDSATYYCQQGKSFPYTFGQGTKLEIK
As for B1, the binding result is given as “binds”.
